Target: TrkA (rat (endogenous in PC12 rat …, UniProt P35739 33-799))
Test: cell-based or functional assay

Sequence of TrkA (rat (P35739 33-799): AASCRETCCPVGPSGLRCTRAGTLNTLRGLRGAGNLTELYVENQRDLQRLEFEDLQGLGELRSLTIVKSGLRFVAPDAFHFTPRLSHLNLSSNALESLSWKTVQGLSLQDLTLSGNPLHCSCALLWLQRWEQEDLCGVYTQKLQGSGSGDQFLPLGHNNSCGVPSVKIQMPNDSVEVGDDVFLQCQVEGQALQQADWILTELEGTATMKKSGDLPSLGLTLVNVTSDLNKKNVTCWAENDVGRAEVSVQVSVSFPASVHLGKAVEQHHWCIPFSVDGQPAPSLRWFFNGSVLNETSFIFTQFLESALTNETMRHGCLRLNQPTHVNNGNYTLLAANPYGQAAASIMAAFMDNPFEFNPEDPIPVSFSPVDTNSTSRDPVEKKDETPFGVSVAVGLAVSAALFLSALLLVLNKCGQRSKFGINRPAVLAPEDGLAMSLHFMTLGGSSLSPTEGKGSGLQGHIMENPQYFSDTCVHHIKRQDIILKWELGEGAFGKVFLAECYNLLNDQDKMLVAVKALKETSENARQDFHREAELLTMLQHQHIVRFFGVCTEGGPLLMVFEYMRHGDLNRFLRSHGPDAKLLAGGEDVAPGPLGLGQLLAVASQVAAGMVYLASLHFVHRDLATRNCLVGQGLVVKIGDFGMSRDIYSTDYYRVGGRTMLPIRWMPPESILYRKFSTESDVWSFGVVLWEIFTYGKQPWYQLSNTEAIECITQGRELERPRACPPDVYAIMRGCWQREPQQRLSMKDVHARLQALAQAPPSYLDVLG

B1: SPKR4NL1-2 (other)
chain: MGHHHHHHHHHHSSGHIEGRHMSPKRSPKRSPKRSPKRGGTYLSEDELKAAEAAFKRHNPTGSCSVSVWVGDKTTATDIKGKEVMVLGEVNINNSVFKQYFFETKCRDPNPVDSG
modifications: disulfide bridge intended between the added Cys and the Cys corresponding to C58 of NGF
- increase in gene expression in PC12 cells, SPKR4NL1-2 group against (SPKR)4 group (luciferase): 1400 fold

Source: patent publication US20050048606A1 (AGENCY FOR SCIENCE TECHNOLOGY AND RESEARCH, published 2005)
